According to article PMC4433160:

T1: human beta defensin 3 (HBD3) (human, UniProt P81534 23-67)
T1 chain: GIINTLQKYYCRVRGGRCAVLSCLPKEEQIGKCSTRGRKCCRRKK

T2: human beta defensin 2 (HBD2) (human, UniProt O15263 24-64)
T2 chain: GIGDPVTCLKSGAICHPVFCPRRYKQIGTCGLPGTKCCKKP

B1: CpG ODN K3 (ssDNA)
DNA: ATCGACTCTCGAGCGTTCTC
modifications: phosphorothioate (underlining lost in text)
B2: FITC-CpG ODN D35 (ssDNA)
DNA: GGTGCATCGATGCAGGGGGG
modifications: phosphorothioate at some nucleotides (underlining lost in text)

How the values were obtained:
[1] = biological target: T1, human beta defensin 3 (HBD3); assay: aggregate formation
[2] = biological target: T2, human beta defensin 2 (HBD2); assay: microscopy of complex

Binder	binding result [1]	binding result [2]
B1	binds	
B2		binds
